In patent publication US20140274782A1, “AFFINITY REAGENTS AND METHODS FOR DETECTION, PURIFICATION, AND PROTEOMIC ANALYSIS OF METHYLATED PROTEINS” (The Board of Trustees of the Leland Stanford Junior …, priority 2013, published 2014):

B1: GTPBP1 (protein, UniProt O00178 1-669, looked up)
GTP-binding protein 1: MATERSRSAMDSPVPASMFAPEPSSPGAARAAAAAARLHGGFDSDCSEDGEALNGEPELDLTSKLVLVSPTSEQYDSLLRQMWERMDEGCGETIYVIGQGSDGTEYGLSEADMEASYATVKSMAEQIEADVILLRERQEAGGRVRDYLVRKRVGDNDFLEVRVAVVGNVDAGKSTLLGVLTHGELDNGRGFARQKLFRHKHEIESGRTSSVGNDILGFDSEGNVVNKPDSHGGSLEWTKICEKSTKVITFIDLAGHEKYLKTTVFGMTGHLPDFCMLMVGSNAGIVGMTKEHLGLALALNVPVFVVVTKIDMCPANILQETLKLLQRLLKSPGCRKIPVLVQSKDDVIVTASNFSSERMCPIFQISNVTGENLDLLKMFLNLLSPRTSYREEEPAEFQIDDTYSVPGVGTVVSGTTLRGLIKLNDTLLLGPDPLGNFLSIAVKSIHRKRMPVKEVRGGQTASFALKKIKRSSIRKGMVMVSPRLNPQASWEFEAEILVLHHPTTISPRYQAMVHCGSIRQTATILSMDKDCLRTGDKATVHFRFIKTPEYLHIDQRLVFREGRTKAVGTITKLLQTTNNSPMNSKPQQIKMQSTKKGPLTKRDEGGPSGGPAVGAPPPGDEASSVGAGQPAASSNLQPQPKPSSGGRRRGGQRHKVKSQGACVTPASGC
B2: SMC1A (protein, UniProt Q14683 1-1233, looked up)
Structural maintenance of …: MGFLKLIEIENFKSYKGRQIIGPFQRFTAIIGPNGSGKSNLMDAISFVLGEKTSNLRVKTLRDLIHGAPVGKPAANRAFVSMVYSEEGAEDRTFARVIVGGSSEYKINNKVVQLHEYSEELEKLGILIKARNFLVFQGAVESIAMKNPKERTALFEEISRSGELAQEYDKRKKEMVKAEEDTQFNYHRKKNIAAERKEAKQEKEEADRYQRLKDEVVRAQVQLQLFKLYHNEVEIEKLNKELASKNKEIEKDKKRMDKVEDELKEKKKELGKMMREQQQIEKEIKEKDSELNQKRPQYIKAKENTSHKIKKLEAAKKSLQNAQKHYKKRKGDMDELEKEMLSVEKARQEFEERMEEESQSQGRDLTLEENQVKKYHRLKEEASKRAATLAQELEKFNRDQKADQDRLDLEERKKVETEAKIKQKLREIEENQKRIEKLEEYITTSKQSLEEQKKLEGELTEEVEMAKRRIDEINKELNQVMEQLGDARIDRQESSRQQRKAEIMESIKRLYPGSVYGRLIDLCQPTQKKYQIAVTKVLGKNMDAIIVDSEKTGRDCIQYIKEQRGEPETFLPLDYLEVKPTDEKLRELKGAKLVIDVIRYEPPHIKKALQYACGNALVCDNVEDARRIAFGGHQRHKTVALDGTLFQKSGVISGGASDLKAKARRWDEKAVDKLKEKKERLTEELKEQMKAKRKEAELRQVQSQAHGLQMRLKYSQSDLEQTKTRHLALNLQEKSKLESELANFGPRINDIKRIIQSREREMKDLKEKMNQVEDEVFEEFCREIGVRNIREFEEEKVKRQNEIAKKRLEFENQKTRLGIQLDFEKNQLKEDQDKVHMWEQTVKKDENEIEKLKKEEQRHMKIIDETMAQLQDLKNQHLAKKSEVNDKNHEMEEIRKKLGGANKEMTHLQKEVTAIETKLEQKRSDRHNLLQACKMQDIKLPLSKGTMDDISQEEGSSQGEDSVSGSQRISSIYAREALIEIDYGDLCEDLKDAQAEEEIKQEMNTLQQKLNEQQSVLQRIAAPNMKAMEKLESVRDKFQETSDEFEAARKRAKKAKQAFEQIKKERFDRFNACFESVATNIDEIYKALSRNSSAQAFLGPENPEEPYLDGINYNCVAPGKRFRPMDNLSGGEKTVAALALLFAIHSYKPAPFFVLDEIDAALDNTNIGKVANYIKEQSTCNFQAIVISLKEEFYTKAESLIGVYPEQGDCVISKVLTFDLTKYPDANPNPNEQ

How the values were obtained:
G9a and GLP = target: T1, G9a and GLP (Homo sapiens, UniProt Q96KQ7+Q9H9B1); experiment: Triple SILAC pull-down after UNC0638 treatment of 293T cells, DMSO/UNC0638 ratio of protein captured by 3×MBT; format: cell-based; parameters: endogenous in cells; host or cells: HEK 293T; conditions: all values in log base 2; for Relative to UNC0638 UNC Heavy / Relative to UNC0638 UNC Light: SILAC ratio DMSO relative to UNC0638, pull-down with 3xMBT; for Relative to UNC0638 UNC Heavy: UNC0638 in heavy SILAC media; for Relative to UNC0638 UNC Light: UNC0638 in light SILAC media; for Relative to UNC0638 Average: average of UNC Light and UNC Heavy experiments;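 on all read-outs here: mass spectrometry (Q-Exactive) SILAC quantitation, DMSO/UNC0638 ratio computed after subtracting 3×MBTD355N mutant pull-down background, only proteins with at least twofold 3×MBT over mutant signal considered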
T1 sequence (Q96KQ7 2-1210 limits assumed): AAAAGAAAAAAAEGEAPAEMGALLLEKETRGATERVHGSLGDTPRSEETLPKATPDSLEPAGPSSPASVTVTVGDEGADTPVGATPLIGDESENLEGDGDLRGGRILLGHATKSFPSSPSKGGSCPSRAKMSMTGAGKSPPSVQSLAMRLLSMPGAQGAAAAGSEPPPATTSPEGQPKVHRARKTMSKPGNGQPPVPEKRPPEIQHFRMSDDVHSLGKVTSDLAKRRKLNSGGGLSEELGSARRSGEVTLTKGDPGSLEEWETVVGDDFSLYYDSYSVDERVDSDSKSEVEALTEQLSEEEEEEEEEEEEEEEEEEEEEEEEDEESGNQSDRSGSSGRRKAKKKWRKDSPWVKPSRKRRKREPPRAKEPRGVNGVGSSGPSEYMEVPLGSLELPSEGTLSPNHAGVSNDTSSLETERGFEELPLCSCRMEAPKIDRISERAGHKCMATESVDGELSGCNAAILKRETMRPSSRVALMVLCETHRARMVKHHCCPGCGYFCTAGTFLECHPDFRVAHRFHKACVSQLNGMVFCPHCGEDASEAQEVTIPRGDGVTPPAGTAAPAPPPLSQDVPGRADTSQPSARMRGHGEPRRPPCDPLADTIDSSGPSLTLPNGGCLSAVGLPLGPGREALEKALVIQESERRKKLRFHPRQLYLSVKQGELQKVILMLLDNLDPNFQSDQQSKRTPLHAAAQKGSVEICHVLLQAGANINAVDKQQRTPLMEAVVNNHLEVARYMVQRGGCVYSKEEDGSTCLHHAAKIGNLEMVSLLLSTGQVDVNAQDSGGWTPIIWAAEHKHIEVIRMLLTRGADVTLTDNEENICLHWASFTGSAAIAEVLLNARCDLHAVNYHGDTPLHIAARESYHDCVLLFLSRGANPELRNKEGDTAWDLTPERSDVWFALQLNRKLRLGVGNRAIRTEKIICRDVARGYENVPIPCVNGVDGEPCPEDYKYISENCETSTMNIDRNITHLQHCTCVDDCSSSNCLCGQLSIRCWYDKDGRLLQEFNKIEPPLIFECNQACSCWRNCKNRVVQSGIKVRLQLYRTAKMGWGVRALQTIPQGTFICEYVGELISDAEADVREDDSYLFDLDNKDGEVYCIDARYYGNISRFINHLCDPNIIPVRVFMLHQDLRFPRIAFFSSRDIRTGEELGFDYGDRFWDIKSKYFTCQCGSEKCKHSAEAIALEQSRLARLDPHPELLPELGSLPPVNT
T1 sequence (Q9H9B1 2-1298 limits assumed): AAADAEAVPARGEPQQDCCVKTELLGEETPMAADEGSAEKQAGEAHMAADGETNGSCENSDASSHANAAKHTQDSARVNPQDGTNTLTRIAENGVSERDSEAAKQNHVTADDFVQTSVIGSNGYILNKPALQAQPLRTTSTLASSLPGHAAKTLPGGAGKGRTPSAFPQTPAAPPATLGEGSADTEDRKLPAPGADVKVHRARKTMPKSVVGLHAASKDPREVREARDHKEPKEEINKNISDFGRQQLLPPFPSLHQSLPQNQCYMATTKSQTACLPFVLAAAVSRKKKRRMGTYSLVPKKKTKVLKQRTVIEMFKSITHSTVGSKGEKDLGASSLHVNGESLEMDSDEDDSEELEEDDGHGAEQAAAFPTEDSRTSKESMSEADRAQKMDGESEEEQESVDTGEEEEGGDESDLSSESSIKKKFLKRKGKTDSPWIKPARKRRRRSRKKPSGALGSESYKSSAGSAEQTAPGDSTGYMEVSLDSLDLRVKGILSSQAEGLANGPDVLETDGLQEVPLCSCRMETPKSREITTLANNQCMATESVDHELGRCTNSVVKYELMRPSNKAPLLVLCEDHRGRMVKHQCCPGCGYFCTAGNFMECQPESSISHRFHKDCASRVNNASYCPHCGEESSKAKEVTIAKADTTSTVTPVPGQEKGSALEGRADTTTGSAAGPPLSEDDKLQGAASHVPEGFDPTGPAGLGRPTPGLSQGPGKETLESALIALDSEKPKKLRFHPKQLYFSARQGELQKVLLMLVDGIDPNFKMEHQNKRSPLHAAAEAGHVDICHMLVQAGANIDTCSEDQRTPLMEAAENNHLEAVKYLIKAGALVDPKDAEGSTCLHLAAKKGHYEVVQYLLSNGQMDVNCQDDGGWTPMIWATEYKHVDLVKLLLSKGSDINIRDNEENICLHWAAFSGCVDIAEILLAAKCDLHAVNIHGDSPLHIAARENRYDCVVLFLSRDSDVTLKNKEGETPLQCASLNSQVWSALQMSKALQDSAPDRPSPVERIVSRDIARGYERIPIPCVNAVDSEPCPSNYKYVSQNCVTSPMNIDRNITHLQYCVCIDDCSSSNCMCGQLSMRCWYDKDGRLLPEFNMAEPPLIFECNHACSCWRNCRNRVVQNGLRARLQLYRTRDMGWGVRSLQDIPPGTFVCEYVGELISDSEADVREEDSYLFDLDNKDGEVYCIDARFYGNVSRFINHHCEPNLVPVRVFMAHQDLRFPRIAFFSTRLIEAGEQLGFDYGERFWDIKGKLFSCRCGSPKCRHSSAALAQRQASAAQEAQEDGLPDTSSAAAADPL

3×MBT domain of L3MBTL1 = experiment: Triple SILAC pull-down, 3xMBT/3xMBTD355N ratio (cytoplasmic, nuclear and chromatin fractions of 293T cells); format: binding, human; conditions: SILAC ratio 3xMBT vs 3xMBTD355N pull-down, 293T cells, all values in log base 2; for 3xMBT/D355N UNC Heavy: experiment with UNC0638 in heavy SILAC media; for 3xMBT/D355N UNC Light: experiment with UNC0638 in light SILAC media;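 on all read-outs here: proteins quantified with MaxQuant, requiring at least two unique peptides and quantification in both label directions, normalized to the mean of proteins from a digested loading control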

Molecule	Relative to UNC0638 UNC Heavy (G9a and GLP) [log base 2]	Relative to UNC0638 UNC Light (G9a and GLP) [log base 2]	Relative to UNC0638 Average (G9a and GLP) [log base 2]	3xMBT/D355N UNC Heavy (3×MBT domain of L3MBTL1) [log base 2]	3xMBT/D355N UNC Light (3×MBT domain of L3MBTL1) [log base 2]
B1	−0.27	0.13	−0.07	−0.64	1.80
B2	−0.05	−0.01	−0.03	1.31	1.83
